Earlier results in patent US20230076733A1, “Combination Therapy” (AGENCY FOR SCIENCE, TECHNOLOGY AND RESEARCH, priority 2020, published 2023).

Details: phase 3 trials, cited from earlier work

B1: Figitumumab (antibody, chains of the INN, looked up)
heavy: EVQLLESGGGLVQPGGSLRLSCTASGFTFSSYAMNWVRQAPGKGLEWVSAISGSGGTTFYADSVKGRFTISRDNSRTTLYLQMNSLRAEDTAVYYCAKDLGWSDSYYYYYGMDVWGQGTTVTVSSASTKGPSVFPLAPCSRSTSESTAALGCLVKDYFPEPVTVSWNSGALTSGVHTFPAVLQSSGLYSLSSVVTVPSSNFGTQTYTCNVDHKPSNTKVDKTVERKCCVECPPCPAPPVAGPSVFLFPPKPKDTLMISRTPEVTCVVVDVSHEDPEVQFNWYVDGVEVHNAKTKPREEQFNSTFRVVSVLTVVHQDWLNGKEYKCKVSNKGLPAPIEKTISKTKGQPREPQVYTLPPSREEMTKNQVSLTCLVKGFYPSDIAVEWESNGQPENNYKTTPPMLDSDGSFFLYSKLTVDKSRWQQGNVFSCSVMHEALHNHYTQKSLSLSPG
light: DIQMTQFPSSLSASVGDRVTITCRASQGIRNDLGWYQQKPGKAPKRLIYAASRLHRGVPSRFSGSGSGTEFTLTISSLQPEDFATYYCLQHNSYPCSFGQGTKLEIKRTVAAPSVFIFPPSDEQLKSGTASVVCLLNNFYPREAKVQWKVDNALQSGNSQESVTEQDSKDSTYSLSSTLTLSKADYEKHKVYACEVTHQGLSSPVTKSFNRGEC
serious adverse events and deaths (lung cancer, Figitumumab in combination with one chemotherapy regimen versus carboplatin or paclitaxel chemotherapy alone): 21%
survival (Figitumumab combined with established chemotherapy regimens (carboplatin and paclitaxel)): failed to improve survival
